This is an account of results in patent US20250257126A1 (CAMBRIDGE ENTERPRISE, published 2025).

One assay concerns the target T1, α-LGR5 epitope peptide (human).
T1 construct: Peptide added to scFv-α-LGR5 absorbed on Ni-NTA biosensors; also called the peptide
T1 peptide: SSPRSGVLLRGCPTHCHC
Nature of the assay: bio-layer interferometry (Octet), scFv absorbed to Ni-NTA biosensors, epitope peptide SEQ ID NO: 210 added; scFv fragment, not whole IgG. The protocol: Binding affinities were determined by bio-layer interferometry measurements using the Octet platform.
Binding affinity was determined by biolayer interferometry on the Octet platform.
For orientation: In BLI a coated tip is dipped into the sample, and binding shifts an interference pattern.

Assay [1] has as its target T2, endogenous human LGR5 of cancer cell lines (human, UniProt O75473 22-907).
T2 sequence: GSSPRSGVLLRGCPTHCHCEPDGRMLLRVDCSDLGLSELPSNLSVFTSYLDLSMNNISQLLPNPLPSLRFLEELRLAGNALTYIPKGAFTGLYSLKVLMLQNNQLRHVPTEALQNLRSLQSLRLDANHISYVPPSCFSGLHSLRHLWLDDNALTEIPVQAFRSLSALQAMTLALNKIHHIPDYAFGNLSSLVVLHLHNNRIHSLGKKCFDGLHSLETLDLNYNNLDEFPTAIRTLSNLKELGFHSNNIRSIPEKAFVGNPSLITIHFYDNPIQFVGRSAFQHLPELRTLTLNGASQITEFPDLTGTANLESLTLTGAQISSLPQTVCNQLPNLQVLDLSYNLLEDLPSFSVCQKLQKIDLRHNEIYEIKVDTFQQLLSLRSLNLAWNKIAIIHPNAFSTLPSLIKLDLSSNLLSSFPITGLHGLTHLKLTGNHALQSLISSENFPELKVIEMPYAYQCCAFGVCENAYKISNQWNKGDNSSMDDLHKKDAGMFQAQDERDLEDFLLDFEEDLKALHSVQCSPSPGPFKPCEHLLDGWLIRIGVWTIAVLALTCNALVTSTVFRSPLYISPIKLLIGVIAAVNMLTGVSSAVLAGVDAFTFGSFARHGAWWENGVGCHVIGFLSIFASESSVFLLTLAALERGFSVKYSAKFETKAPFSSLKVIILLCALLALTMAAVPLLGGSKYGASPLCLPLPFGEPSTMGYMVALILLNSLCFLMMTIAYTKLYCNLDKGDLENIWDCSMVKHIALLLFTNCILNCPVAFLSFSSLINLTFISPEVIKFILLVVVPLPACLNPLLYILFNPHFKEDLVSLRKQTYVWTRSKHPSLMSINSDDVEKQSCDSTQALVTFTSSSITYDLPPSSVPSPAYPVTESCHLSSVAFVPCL
The experiment in a line: cell-based or functional assay.

Assay [2] deals with T3, RAD-displayed Fragment 1A of human LGR5 (human).
T3 construct: also called Frag1A
T3 sequence (O75473 22-37, looked up): GSSPRSGVLLRGCPTH
The experiment in a line: bio-layer interferometry (Octet), captured RAD-displayed fragment.

Another assay addresses T4, murine LGR6 transgene (mouse, UniProt Q3UVD5 23-967).
T4 construct: whole, on cells; also called mLGR6
T4 sequence (looked up): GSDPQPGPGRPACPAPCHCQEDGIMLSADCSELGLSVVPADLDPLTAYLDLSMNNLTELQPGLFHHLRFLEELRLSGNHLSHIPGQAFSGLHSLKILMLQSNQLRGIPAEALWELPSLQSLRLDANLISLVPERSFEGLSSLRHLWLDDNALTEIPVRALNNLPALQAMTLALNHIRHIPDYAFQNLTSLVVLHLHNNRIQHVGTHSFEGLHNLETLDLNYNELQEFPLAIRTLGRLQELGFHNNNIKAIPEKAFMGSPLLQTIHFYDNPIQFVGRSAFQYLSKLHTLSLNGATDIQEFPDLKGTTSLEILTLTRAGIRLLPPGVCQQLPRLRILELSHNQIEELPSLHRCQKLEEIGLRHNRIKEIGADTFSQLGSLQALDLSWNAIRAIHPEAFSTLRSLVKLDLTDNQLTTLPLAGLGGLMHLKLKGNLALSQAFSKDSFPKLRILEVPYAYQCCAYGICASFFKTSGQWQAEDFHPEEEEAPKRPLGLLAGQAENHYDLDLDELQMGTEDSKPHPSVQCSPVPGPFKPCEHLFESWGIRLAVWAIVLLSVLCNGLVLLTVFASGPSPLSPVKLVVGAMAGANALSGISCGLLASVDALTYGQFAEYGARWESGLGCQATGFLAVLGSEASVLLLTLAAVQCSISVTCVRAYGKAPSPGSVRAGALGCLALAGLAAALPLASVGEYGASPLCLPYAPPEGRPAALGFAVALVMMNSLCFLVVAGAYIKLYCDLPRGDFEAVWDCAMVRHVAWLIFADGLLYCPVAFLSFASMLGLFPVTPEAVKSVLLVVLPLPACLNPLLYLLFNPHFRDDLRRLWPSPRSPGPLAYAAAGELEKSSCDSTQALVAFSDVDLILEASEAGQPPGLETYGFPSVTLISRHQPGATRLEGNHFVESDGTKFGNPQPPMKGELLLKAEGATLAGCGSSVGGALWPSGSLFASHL
The experiment in a line: western blot of lysates of HEK293T cells expressing the LGR transgenes. Background: In western blotting, separated proteins are transferred to a membrane and probed.

Assay [3] concerns the target T3, RAD-displayed Fragment 1A of human LGR5. Nature of the assay: bio-layer interferometry (Octet), captured RAD-displayed fragment, 10 µM Fragment 1 peptide included.
A further assay deals with T5, human LGR6 transgene (human, UniProt Q9HBX8 25-967).
T5 construct: whole, on cells; Overexpressed in HEK293T cells with N-terminal HA tag, V2 receptor tail and eGFP; also tested as lysate; also called hLGR6; LGR6-eGFP
T5 sequence (looked up): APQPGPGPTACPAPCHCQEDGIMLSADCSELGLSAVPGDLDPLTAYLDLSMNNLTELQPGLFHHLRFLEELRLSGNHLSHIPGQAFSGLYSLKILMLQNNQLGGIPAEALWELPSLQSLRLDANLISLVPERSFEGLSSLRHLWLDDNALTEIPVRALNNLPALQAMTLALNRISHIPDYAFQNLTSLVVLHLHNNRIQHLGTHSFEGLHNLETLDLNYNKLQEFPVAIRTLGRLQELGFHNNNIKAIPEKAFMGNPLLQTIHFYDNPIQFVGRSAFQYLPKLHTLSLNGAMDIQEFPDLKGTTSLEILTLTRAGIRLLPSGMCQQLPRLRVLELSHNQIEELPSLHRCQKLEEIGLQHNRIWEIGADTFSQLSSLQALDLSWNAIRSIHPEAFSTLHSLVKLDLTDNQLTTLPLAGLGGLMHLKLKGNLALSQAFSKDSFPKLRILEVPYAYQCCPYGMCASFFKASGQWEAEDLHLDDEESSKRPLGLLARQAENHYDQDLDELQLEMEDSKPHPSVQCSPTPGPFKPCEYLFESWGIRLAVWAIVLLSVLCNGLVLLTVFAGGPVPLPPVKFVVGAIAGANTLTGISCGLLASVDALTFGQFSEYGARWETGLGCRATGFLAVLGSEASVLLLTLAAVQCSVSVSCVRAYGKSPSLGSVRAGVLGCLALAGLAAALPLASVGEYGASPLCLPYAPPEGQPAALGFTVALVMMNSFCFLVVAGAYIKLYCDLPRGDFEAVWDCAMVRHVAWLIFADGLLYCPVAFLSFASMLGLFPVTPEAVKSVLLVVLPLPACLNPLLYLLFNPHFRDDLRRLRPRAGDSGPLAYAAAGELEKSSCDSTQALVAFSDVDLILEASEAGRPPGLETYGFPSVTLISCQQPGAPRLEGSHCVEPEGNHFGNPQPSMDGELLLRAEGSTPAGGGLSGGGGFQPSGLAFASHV
The experiment in a line: immunofluorescence of HEK293T cells expressing LGR-eGFP transgenes, stained with fluorescent clone 2.

A further assay addresses T6, human LGR4 transgene (human, UniProt Q9BXB1 25-951).
T6 construct: whole, on cells; Overexpressed in HEK293T cells with N-terminal HA tag, V2 receptor tail and eGFP; also tested as lysate; also called hLGR4; LGR4-eGFP
The experiment in a line: flow cytometry of live HEK293T cells expressing LGR-eGFP transgenes, Fl-α-LGR5 against eGFP. For orientation: A flow cytometer gives signals particle by particle.

The target in another assay is T7, murine LGR5 transgene (mouse, UniProt Q9Z1P4 22-907).
T7 construct: whole, on cells; Overexpressed in HEK293T cells with N-terminal HA tag, V2 receptor tail and eGFP; also tested as lysate; also called mLGR5; mLGR5-eGFP
T7 sequence (looked up): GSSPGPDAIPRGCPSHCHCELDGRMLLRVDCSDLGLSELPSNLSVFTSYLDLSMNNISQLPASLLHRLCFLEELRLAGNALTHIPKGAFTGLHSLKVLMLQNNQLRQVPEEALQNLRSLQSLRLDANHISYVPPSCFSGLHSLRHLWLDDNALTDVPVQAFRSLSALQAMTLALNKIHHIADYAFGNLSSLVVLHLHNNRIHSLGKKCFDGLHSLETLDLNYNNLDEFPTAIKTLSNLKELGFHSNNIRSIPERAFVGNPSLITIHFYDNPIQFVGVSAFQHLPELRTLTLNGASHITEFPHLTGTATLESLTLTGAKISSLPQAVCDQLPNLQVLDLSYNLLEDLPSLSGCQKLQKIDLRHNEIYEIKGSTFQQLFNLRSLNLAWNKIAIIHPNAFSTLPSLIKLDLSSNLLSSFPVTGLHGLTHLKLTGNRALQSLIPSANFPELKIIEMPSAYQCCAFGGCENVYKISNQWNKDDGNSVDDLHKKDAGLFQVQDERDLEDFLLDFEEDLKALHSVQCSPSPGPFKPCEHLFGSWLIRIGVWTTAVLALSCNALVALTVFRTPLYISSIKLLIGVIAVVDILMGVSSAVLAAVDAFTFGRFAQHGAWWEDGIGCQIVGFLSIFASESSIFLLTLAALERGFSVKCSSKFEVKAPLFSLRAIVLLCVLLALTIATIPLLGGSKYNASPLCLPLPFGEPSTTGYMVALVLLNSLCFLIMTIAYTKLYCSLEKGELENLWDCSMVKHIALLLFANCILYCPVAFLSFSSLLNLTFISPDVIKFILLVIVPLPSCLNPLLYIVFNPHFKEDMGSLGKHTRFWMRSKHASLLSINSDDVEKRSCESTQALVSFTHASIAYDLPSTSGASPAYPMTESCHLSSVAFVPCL
The assay is described as above.

A further assay addresses T8, murine LGR4 transgene (mouse, UniProt A2ARI4 25-951).
T8 construct: whole, on cells; Overexpressed in HEK293T cells with N-terminal HA tag, V2 receptor tail and eGFP; also tested as lysate; also called mLGR4
The experiment in a line: western blot of lysates of HEK293T cells expressing HA-tagged LGR-eGFP transgenes, probed with hybridoma clone 2.

B1: scFv-α-LGR5 (scFv)
scFv: EIVMTQSPATLSLSPGERATLSCRASQDISNRLNWYQQKPGQAVRLLISYRSRRHTGIPARFSGSGSGTDYTLTISSLEPEDFAVYYCQQGNSLPPTFGGGTKLEIKGGGGSGGGGSGGGGSGGGGSQVQLVQSGAEVKKPGASVKVSCKASGYTFTNYWMQWVRQAPGQGLEWIGEIDPSDSYTNYNQKFQGRVTLTVDTSTSTAYMELSSLRSEDTAVYYCARSLSGYVDYWGQGTTVTVSS
notes: Made from human variant 4 (clone 2.4), VL-linker-VH; The protein in the Octet assay was 6xHis-tagged; also called scFv fragment; svFv-α-LGR5
For the molecule B1, the Kd (commonly a measure of binding affinity in units of concentration) with α-LGR5 epitope peptide was determined as 0.77 nM.

B2: α-LGR5 clone 2-ADC (antibody, mouse IgG2b, kappa, V domains shown)
VH: QVQLQQPGAELVKPGASVKLSCKASGYTFTNYWMQWVKQRPGQGLEWIGEIDPSDSYTNYNQKFKGKATLTVDTSSSTAYMQLSSLTSEDSAVYYCARSLSGYVDYWGQGTTLTVSS
VL: DIQMTQTTSSLSASLGDRVTISCRASQDISNRLNWYQQKPDGTVKLLISYRSRLHSGVPSRFSGSGSGTDYSLTISNLEQEDIATYFCQQGNSLPPTFGGGTKLEVRR
modifications: MMAE coupled through a divinyl pyrimidine bridging linker inserted within the heavy chain-light chain disulphide linkages, drug-to-antibody ratio of 4
notes: cleavable linker version; also called α-LGR5-ADC
As to B2, in assay [1], the “EC50 of cell killing, LoVo cells” value amounted to 9 nM; the “EC50 of cell killing, NALM6 cells, single dose, three days” value is 4 nM; the “EC50 of cell killing, REH cells” value came to 10 nM; the “estimated EC50 for organoid cell apoptosis (cleaved caspase 3), CRC organoid line 1” value was about 5 nM. Also, the “estimated EC50 for organoid cell apoptosis (cleaved caspase 3), CRC organoid line 2” value in assay [1] is about 100 nM. The Kd in assay [2] worked out at 2.7 nM.

B3: α-LGR5 clone 2 (antibody, mouse IgG2b, kappa, V domains shown)
VH: QVQLQQPGAELVKPGASVKLSCKASGYTFTNYWMQWVKQRPGQGLEWIGEIDPSDSYTNYNQKFKGKATLTVDTSSSTAYMQLSSLTSEDSAVYYCARSLSGYVDYWGQGTTLTVSS
VL: DIQMTQTTSSLSASLGDRVTISCRASQDISNRLNWYQQKPDGTVKLLISYRSRLHSGVPSRFSGSGSGTDYSLTISNLEQEDIATYFCQQGNSLPPTFGGGTKLEVRR
notes: Murine monoclonal antibody; In immunofluorescence and flow cytometry it carried a fluorophore (Alexa647 or DyLight 650) and is given as FI-α-LGR5 / FL-α-LGR5; also called a-LGR5; hybridoma clone 2
On to B3, for which the binding result with murine LGR6 transgene, with human LGR6 transgene, with human LGR4 transgene, with murine LGR5 transgene and with murine LGR4 transgene was “no binding” throughout. For the same molecule, the Kd in assay [3] was determined as 1.1 nM.

B4: α-LGR5 humanized (antibody, V domains shown)
VH: QVQLQQPGAELVKPGASVKLSCKASGYTFTNYWMQWVKQRPGQGLEWIGEIDPSDSYTNYNQKFKGKATLTVDTSSSTAYMQLSSLTSEDSAVYYCARSLSGYVDYWGQGTTLTVSS
VL: DIQMTQTTSSLSASLGDRVTISCRASQDISNRLNWYQQKPDGTVKLLISYRSRLHSGVPSRFSGSGSGTDYSLTISNLEQEDIATYFCQQGNSLPPTFGGGTKLEVR
notes: Direct transposition of the murine clone 2 variable domains into the human IgG scaffold; also called α-LGR5 humanised
On to B4, for which, in assay [2], the Kd was determined as 3.4 nM.

B5: α-LGR5 variant 4-ADC (antibody, human IgG1, kappa, V domains shown)
VH: QVQLVQSGAEVKKPGASVKVSCKASGYTFTNYWMQWVRQAPGQGLEWIGEIDPSDSYTNYNQKFQGRVTLTVDTSTSTAYMELSSLRSEDTAVYYCARSLSGYVDYWGQGTTVTVSS
VL: EIVMTQSPATLSLSPGERATLSCRASQDISNRLNWYQQKPGQAVRLLISYRSRRHTGIPARFSGSGSGTDYTLTISSLEPEDFAVYYCQQGNSLPPTFGGGTKLEIKR
modifications: MMAE coupled through a divinyl pyrimidine bridging linker inserted within the heavy chain-light chain disulphide linkages, drug-to-antibody ratio of 4
notes: ADC version of humanized variant 4 (clone 2.4); also called α-LGR5v4-ADC
For B5, binding in [2] was put at a Kd of 2 nM.
